# Laboratory results as given in patent US20240059789A1 (Janssen / Centocor, published 2024).
# Positions count from the first letter of the chain named.
# B1: PS3B918 (bispecific antibody, human IgG1, lambda, L234A L235A)
# heavy 1: QVQLQQSGPRLVRPSQTLSLTCAISGDSVFNNNAAWSWIRQSPSRGLEWLGRTYYRSKWLYDYAVSVKSRITVNPDTSRNQFTLQLNSVTPEDTALYYCARGYSSSFDYWGQGTLVTVSSASTKGPSVFPLAPSSKSTSGGTAALGCLVKDYFPEPVTVSWNSGALTSGVHTFPAVLQSSGLYSLSSVVTVPSSSLGTQTYICNVNHKPSNTKVDKKVEPKSCDKTHTCPPCPAPEAAGGPSVFLFPPKPKDTLMISRTPEVTCVVVSVSHEDPEVKFNWYVDGVEVHNAKTKPREEQYNSTYRVVSVLTVLHQDWLNGKEYKCKVSNKALPAPIEKTISKAKGQPREPQVYTLPPSREEMTKNQVSLTCLVKGFYPSDIAVEWESNGQPENNYKTTPPVLDSDGSFLLYSKLTVDKSRWQQGNVFSCSVMHEALHNHYTQKSLSLSPG
# light 1: QSALTQPASVSGSPGQSITISCTGTSSNIGTYKFVSWYQQHPDKAPKVLLYEVSKRPSGVSSRFSGSKSGNTASLTISGLQAEDQADYHCVSYAGSGTLLFGGGTKLTVLGQPKAAPSVTLFPPSSEELQANKATLVCLISDFYPGAVTVAWKADSSPVKAGVETTTPSKQSNNKYAASSYLSLTPEQWKSHRSYSCQVTHEGSTVEKTVAPTECS
# heavy 2: EVQLVESGGGLVKPGGSLRLSCAASGFTFSRYNMNWVRQAPGKGLEWVSSINSNSRYIYYADSVKGRFTISRDSAKNSLYLQMNSLRAEDTAVYYCAKTMGDYYYYYGMDVWGQGTTVTVSSASTKGPSVFPLAPSSKSTSGGTAALGCLVKDYFPEPVTVSWNSGALTSGVHTFPAVLQSSGLYSLSSVVTVPSSSLGTQTYICNVNHKPSNTKVDKKVEPKSCDKTHTCPPCPAPEAAGGPSVFLFPPKPKDTLMISRTPEVTCVVVSVSHEDPEVKFNWYVDGVEVHNAKTKPREEQYNSTYRVVSVLTVLHQDWLNGKEYKCKVSNKALPAPIEKTISKAKGQPREPQVYTLPPSREEMTKNQVSLTCLVKGFYPSDIAVEWESNGQPENNYKTTPPVLDSDGSFFLYSRLTVDKSRWQQGNVFSCSVMHEALHNHYTQKSLSLSPG
# light 2: SSELTQPPSVSGAPGQRVTISCAGSLSNIGAGYDVHWYQQLPGTAPKLLIYGNINRLSGVPERFSGSKSGTSASLAITGLQAEDGADYYCQSYDSSLSSYVFGTGTKVTVLGQPKAAPSVTLFPPSSEELQANKATLVCLISDFYPGAVTVAWKADSSPVKAGVETTTPSKQSNNKYAASSYLSLTPEQWKSHRSYSCQVTHEGSTVEKTVAPTECS
# B2: PS3B932 (bispecific antibody, human IgG1, kappa, lambda, L234A L235A)
# heavy 1: EVQLVESGGGLVKPGGSLRLSCAASGFTFSRYNMNWVRQAPGKGLEWVSSISTSSNYIYYADSVKGRFTFSRDNAKNSLDLQMSGLRAEDTAIYYCTRGWGPFDYWGQGTLVTVSSASTKGPSVFPLAPSSKSTSGGTAALGCLVKDYFPEPVTVSWNSGALTSGVHTFPAVLQSSGLYSLSSVVTVPSSSLGTQTYICNVNHKPSNTKVDKKVEPKSCDKTHTCPPCPAPEAAGGPSVFLFPPKPKDTLMISRTPEVTCVVVSVSHEDPEVKFNWYVDGVEVHNAKTKPREEQYNSTYRVVSVLTVLHQDWLNGKEYKCKVSNKALPAPIEKTISKAKGQPREPQVYTLPPSREEMTKNQVSLTCLVKGFYPSDIAVEWESNGQPENNYKTTPPVLDSDGSFLLYSKLTVDKSRWQQGNVFSCSVMHEALHNHYTQKSLSLSP
# light 1: DIQMTQSPSSLSASVGDRVTITCRARQSIGTAIHWYQQKPGKAPKLLIKYASESISGVPSRFSGSGSGTDFTLTISSLQPEDFATYYCQQSGSWPYTFGQGTKLEIKRTVAAPSVFIFPPSDEQLKSGTASVVCLLNNFYPREAKVQWKVDNALQSGNSQESVTEQDSKDSTYSLSSTLTLSKADYEKHKVYACEVTHQGLSSPVTKSFNRGEC
# heavy 2: EVQLVESGGGLVQPGGSLRLSCAASGFTFSSYAMSWVRQAPGKGLEWVSAISGGIGSTYYADSVKGRFTISRDNSKNTLWLQMNSLRAEDTAVYYCAKDGVGATPYYFDYWGQGTLVTVSSASTKGPSVFPLAPSSKSTSGGTAALGCLVKDYFPEPVTVSWNSGALTSGVHTFPAVLQSSGLYSLSSVVTVPSSSLGTQTYICNVNHKPSNTKVDKKVEPKSCDKTHTCPPCPAPEAAGGPSVFLFPPKPKDTLMISRTPEVTCVVVSVSHEDPEVKFNWYVDGVEVHNAKTKPREEQYNSTYRVVSVLTVLHQDWLNGKEYKCKVSNKALPAPIEKTISKAKGQPREPQVYTLPPSREEMTKNQVSLTCLVKGFYPSDIAVEWESNGQPENNYKTTPPVLDSDGSFFLYSRLTVDKSRWQQGNVFSCSVMHEALHNHYTQKSLSLSPG
# light 2: QSVLTQPPSVSAAPGQKVTISCSGSSSNIGNNYVSWYQQLPGTAPKLLIYDNNKRPSGIPDRFSGSKSGTSATLGITGLQTGDEADYYCGTWDSSLSAYVFGTGTKVTVLGQPKAAPSVTLFPPSSEELQANKATLVCLISDFYPGAVTVAWKADSSPVKAGVETTTPSKQSNNKYAASSYLSLTPEQWKSHRSYSCQVTHEGSTVEKTVAPTECS
# B3: PS3B925 (bispecific antibody, human IgG1, kappa, lambda, L234A L235A)
# heavy 1: B2 heavy 1
# light 1: B2 light 1
# heavy 2: B2 heavy 2 with A23T, T28I, I55Y, S57A, T58P, S63T, W80Y, Y110D, T115I
# light 2: B2 light 2 with Y50F
# B4: PS3B933 (bispecific antibody, human IgG1, kappa, lambda, L234A L235A)
# heavy 1: B2 heavy 1
# light 1: B2 light 1
# heavy 2: B2 heavy 2 with I55S, W80Y, T91S
# light 2: B2 light 2
# B5: PS3B934 (bispecific antibody, human IgG1, kappa, lambda, L234A L235A)
# heavy 1: B2 heavy 1
# light 1: B2 light 1
# heavy 2: B2 heavy 2
# light 2: B2 light 2 with N31I, Y99V, T103G, V107L
# B6: PS3B935 (bispecific antibody, human IgG1, kappa, lambda, L234A L235A)
# heavy 1: B2 heavy 1
# light 1: B2 light 1
# heavy 2: B2 heavy 2 with I55S, W80Y, T91S
# light 2: B2 light 2 with N31I, Y99V, T103G, V107L
# B7: PS3B913 (bispecific antibody, human IgG1, lambda, L234A L235A)
# heavy 1: B1 heavy 1
# light 1: B1 light 1
# heavy 2: not shown
# light 2: not shown
# B8: PS3B915 (bispecific antibody, human IgG1, lambda, L234A L235A)
# heavy 1: B1 heavy 1
# light 1: B1 light 1
# heavy 2: not shown
# light 2: not shown
# B9: PSMB890 (antibody, human IgG1, lambda, L234A L235A, V domains shown)
# VH: EVQLVESGGGLVKPGGSLRLSCAASGFTFSRYNMNWVRQAPGKGLEWVSSINSNSRYIYYADSVKGRFTISRDSAKNSLYLQMNSLRAEDTAVYYCAKTMGDYYYYYGMDVWGQGTTVTVSS
# VL: SSELTQPPSVSGAPGQRVTISCAGSLSNIGAGYDVHWYQQLPGTAPKLLIYGNINRLSGVPERFSGSKSGTSASLAITGLQAEDGADYYCQSYDSSLSSYVFGTGTKVTVLG
# Target: T1, Human PSMA on prostate cancer cell lines (C4-2B, 22RV1) (human, UniProt Q04609 1-750)
# Assay: cell-based or functional assay
# T1 sequence (Q04609 whole entry): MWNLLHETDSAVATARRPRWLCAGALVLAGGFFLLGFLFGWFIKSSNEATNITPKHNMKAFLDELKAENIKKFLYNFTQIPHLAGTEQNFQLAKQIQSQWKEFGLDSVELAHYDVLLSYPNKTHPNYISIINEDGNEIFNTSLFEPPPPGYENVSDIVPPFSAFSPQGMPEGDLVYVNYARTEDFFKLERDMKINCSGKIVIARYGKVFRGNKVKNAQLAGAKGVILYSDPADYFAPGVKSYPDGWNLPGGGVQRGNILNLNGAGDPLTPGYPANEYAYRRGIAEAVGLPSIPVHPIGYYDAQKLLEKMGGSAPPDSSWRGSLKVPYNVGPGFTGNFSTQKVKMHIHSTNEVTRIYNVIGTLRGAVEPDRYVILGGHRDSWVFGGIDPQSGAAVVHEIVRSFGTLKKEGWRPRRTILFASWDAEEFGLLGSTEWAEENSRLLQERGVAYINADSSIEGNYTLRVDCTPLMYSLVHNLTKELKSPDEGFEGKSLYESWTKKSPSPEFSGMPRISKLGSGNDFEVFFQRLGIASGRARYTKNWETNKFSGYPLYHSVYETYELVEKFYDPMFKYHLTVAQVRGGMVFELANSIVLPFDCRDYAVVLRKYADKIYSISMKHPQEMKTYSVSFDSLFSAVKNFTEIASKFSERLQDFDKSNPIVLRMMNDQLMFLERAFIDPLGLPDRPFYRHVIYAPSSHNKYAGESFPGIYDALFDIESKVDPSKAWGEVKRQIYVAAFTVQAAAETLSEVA
row,Binder,"Tumor killing EC50 [M] (C4-2B + PAN-T cells, 72 h, flow cytometry)"
1,B1,1e-08
2,B2,6.42e-12
3,B3,7.98e-12
4,B4,4.76e-11
5,B5,7.24e-12
6,B6,7.16e-12
7,B7,3.11e-10
8,B8,1e-08

# Target: Human CD3 on T cells / Jurkat cells (human, UniProt P07766 23-207)
# Assay: cell-based or functional assay
# Chain of Human CD3 on T cells / Jurkat cells (P07766 23-207 limits assumed): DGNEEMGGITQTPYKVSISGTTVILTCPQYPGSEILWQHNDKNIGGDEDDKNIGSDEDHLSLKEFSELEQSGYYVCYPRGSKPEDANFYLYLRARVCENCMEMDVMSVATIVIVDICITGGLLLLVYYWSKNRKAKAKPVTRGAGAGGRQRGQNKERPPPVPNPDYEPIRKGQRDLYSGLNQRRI
row,Binder,"T cell activation EC50 [M] (CD25+ T cells, C4-2B co-culture, 72 h)"
1,B1,1e-08
2,B2,1.2e-11
3,B3,4.59e-12
4,B4,6.01e-11
5,B5,4.81e-12
6,B6,6.72e-12
7,B7,1.55e-10
8,B8,1e-08

# Target: T1, Human PSMA on prostate cancer cell …
# Assay: flow cytometry on 22RV1 cells
# Method: (§1) Selected anti-PSMA antibodies were evaluated for binding to commercial prostate cancer cell lines. C4-2B cells were originally developed at MD Anderson and are derived from LNCaP FGC grown in vivo and metastasize to bone marrow (Thalmann, et al 1994, Cancer Research 54, 2577-81). 22Rv1 cells are a human prostate carcinoma epithelial cell line derived from a xenograft that was serially propagated in mice after castration-induced regression and relapse of the parental, androgen-dependent CWR22 xenograft. 22RV1 and C4-2B cells were plated at 50,000 cells per well in 50 μl of assay medium (RPMI, 10% HI FBS) in V bottom plates. Serial dilutions of antibodies were prepared in assay medium with 50 μl of antibody dilutions added to the plates containing cells. The plates were incubated for 60 min at 37° C. at which time 100 μl of staining buffer (Becton Dickinson Cat #554657) was added to all wells of each plate. The plates were centrifuged at 300×G for 5 minutes and the medium was removed from the wells. 200 μl of staining buffer was added to all wells of each plate. The plates were centrifuged at 300×G for 5 minutes and the medium was removed from the wells. 50 μl of 2 μg/ml AlexaFluor647-labeled goat anti-human Fc was added to all wells of the plates and the plates were incubated for 30 minutes at 4° C. 150 μl of staining buffer was added to all wells of each plate. The plates were centrifuged at 300×G for 5 minutes and the medium was removed from the wells.
row,Binder,EC50 [pM]
1,B9,1710

# Target: T1, Human PSMA on prostate cancer cell …
# Assay: flow cytometry on C4-2B cells
# Method: as §1
row,Binder,EC50 [pM]
1,B9,941
